Assay results taken from US20260240820A1 (ION CHAT RESEARCH CORPORATE, published 2026).
Where no end group is shown, it is not given here.

B1: Human Type I taste receptor T1R3 (receptor, UniProt Q7RTX0 21-852, looked up)
chain: APLCLSQQLRMKGDYVLGGLFPLGEAEEAGLRSRTRPSSPVCTRFSSNGLLWALAMKMAVEEINNKSDLLPGLRLGYDLFDTCSEPVVAMKPSLMFLAKAGSRDIAAYCNYTQYQPRVLAVIGPHSSELAMVTGKFFSFFLMPQVSYGASMELLSARETFPSFFRTVPSDRVQLTAAAELLQEFGWNWVAALGSDDEYGRQGLSIFSALAAARGICIAHEGLVPLPRADDSRLGKVQDVLHQVNQSSVQVVLLFASVHAAHALFNYSISSRLSPKVWVASEAWLTSDLVMGLPGMAQMGTVLGFLQRGAQLHEFPQYVKTHLALATDPAFCSALGEREQGLEEDVVGQRCPQCDCITLQNVSAGLNHHQTFSVYAAVYSVAQALHNTLQCNASGCPAQDPVKPWQLLENMYNLTFHVGGLPLRFDSSGNVDMEYDLKLWVWQGSVPRLHDVGRFNGSLRTERLKIRWHTSDNQKPVSRCSRQCQEGQVRRVKGFHSCCYDCVDCEAGSYRQNPDDIACTFCGQDEWSPERSTRCFRRRSRFLAWGEPAVLLLLLLLSLALGLVLAALGLFVHHRDSPLVQASGGPLACFGLVCLGLVCLSVLLFPGQPSPARCLAQQPLSHLPLTGCLSTLFLQAAEIFVESELPLSWADRLSGCLRGPWAWLVVLLAMLVEVALCTWYLVAFPPEVVTDWHMLPTEALVHCRTRSWVSFGLAHATNATLAFLCFLGTFLVRSQPGCYNRARGLTFAMLAYFITWVSFVPLLANVQVVLRPAVQMGALLLCVLGILAAFHLPRCYLLMRQPGLNTPEFFLGGGPGDAQGQNDGNTGNQGKHE
notes: whole, on cells; Present on the cells as a T1R3/T1R3 homodimer or as a heterodimer with T1R2 or T1R1; also called TAS1R3; hT1R3

Columns and labels:
[1] = molecular target: B1; assay: fluorescence microscopy on SH-SY5Y cells
Amyloid β peptide Aβ1-42 = molecular target: T1, Amyloid β peptide Aβ1-42; assay: assay not described
T1 construct: Bought (Wako Pure Chemical Industries); also called Aβ42; amyloid β1-42 peptide
T1 sequence (peptide, as listed by the source): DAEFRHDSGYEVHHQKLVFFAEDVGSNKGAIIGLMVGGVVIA

[2] = molecular target: T2, Fluorescent Aβ1-40 peptide (fluorescent label; dye and position not stated); assay: fluorescence microscopy on cell surfaces
T2 construct: also called labeled Aβ1-40 peptide
T2 sequence (peptide, as listed by the source): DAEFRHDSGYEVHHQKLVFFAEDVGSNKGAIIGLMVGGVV

| Binder | binding result [1] | binding result (Amyloid β peptide Aβ1-42) | binding result [2] |
| --- | --- | --- | --- |
| GSNKGAIIGLM (also: fluorescent label, dye and position not given here, also called fluorescent Aβ25-35 peptide) [Fluorescently labeled Aβ25-35 peptide (FL-Aβ25-35)] | binds |  |  |
| B1 |  | binds | binds |
